Test results reported in US20180291110A1.

Molecular target: complement factor C1q (Sigma, C1740) (UniProt P02745)
Experiment: flow cytometry, C1q on antibody-coated BT-474 cells

complement factor C1q (Sigma, C1740), sequence (P02745 23-245, chain 1 of 3): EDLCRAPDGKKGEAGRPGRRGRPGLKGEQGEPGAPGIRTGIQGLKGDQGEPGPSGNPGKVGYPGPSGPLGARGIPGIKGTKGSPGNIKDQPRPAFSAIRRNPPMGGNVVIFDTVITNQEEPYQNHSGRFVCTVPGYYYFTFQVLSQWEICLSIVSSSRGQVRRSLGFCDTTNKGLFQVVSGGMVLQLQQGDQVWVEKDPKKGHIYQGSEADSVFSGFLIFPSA
complement factor C1q (Sigma, C1740), sequence (P02746 28-253, chain 2 of 3, further chain): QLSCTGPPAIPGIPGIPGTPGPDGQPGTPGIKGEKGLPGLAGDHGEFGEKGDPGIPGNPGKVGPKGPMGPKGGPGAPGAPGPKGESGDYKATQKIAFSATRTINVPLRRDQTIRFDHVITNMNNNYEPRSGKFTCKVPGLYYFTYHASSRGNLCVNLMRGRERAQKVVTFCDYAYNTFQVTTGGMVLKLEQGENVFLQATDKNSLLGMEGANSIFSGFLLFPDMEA
complement factor C1q (Sigma, C1740), sequence (P02747 29-245, chain 3 of 3, further chain): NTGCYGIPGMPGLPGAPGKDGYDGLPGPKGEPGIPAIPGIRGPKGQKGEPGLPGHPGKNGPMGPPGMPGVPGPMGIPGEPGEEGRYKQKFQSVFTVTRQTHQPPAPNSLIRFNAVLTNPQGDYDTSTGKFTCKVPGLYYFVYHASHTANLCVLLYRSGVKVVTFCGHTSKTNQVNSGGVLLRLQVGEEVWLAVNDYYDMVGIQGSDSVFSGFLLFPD

PE-signal (geomean): 2160
Substance: combination of trastuzumab and pertuzumab
